Results reported in PMC3060121, “The Peroxisomal Targeting Signal 1 in sterol carrier protein 2 is autonomous and essential for receptor recognition” (BMC Biochemistry, 2011).

T1: Gal4DB-preSCP2 (1-143), two-hybrid fusion (human, UniProt P22307-2 1-143)
T1 construct: sterol carrier protein 2, human, residues 1-143, printed length 143; numbers count on: preSCP2 of 143 residues; In pPC97 between SalI and NotI; source: yeast two-hybrid fusion (S. cerevisiae PCY2)
T1 sequence (looked up): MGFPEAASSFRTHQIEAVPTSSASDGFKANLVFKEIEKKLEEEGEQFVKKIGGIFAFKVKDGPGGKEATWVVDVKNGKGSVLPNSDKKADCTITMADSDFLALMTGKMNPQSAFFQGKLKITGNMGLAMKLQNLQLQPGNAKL

T2: Gal4DB-mSCP2 (21-143), two-hybrid fusion (human, UniProt P22307-2 21-143)
T2 construct: sterol carrier protein 2, human, residues 21-143; numbers count on: preSCP2 of 143 residues; In pPC97 between SalI and NotI; source: yeast two-hybrid fusion (S. cerevisiae PCY2)
T2 sequence (looked up): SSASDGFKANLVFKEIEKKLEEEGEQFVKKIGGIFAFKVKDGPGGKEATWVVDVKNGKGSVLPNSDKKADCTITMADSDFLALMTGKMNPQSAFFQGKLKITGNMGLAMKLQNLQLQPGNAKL


What was measured:
[1] = molecular target: T3, human Pex5p(C) (residues 315-639) D624W (human, UniProt P50542 315-639, D624W, biotin (EZ-Link Sulfo-NHS-Biotinylation Kit, between 1 and 2 moles of biotin per mole) in the Octet RED96 assay only); experiment: ITC; MicroCal VP-ITC; Pex5p(C) wild-type or mutant titrated with mSCP2 or the peptide PGNAKL; as described in ref 4; details: both partners purified
T3 construct: Made by QuikChange on the His6-GST Pex5p(C) plasmid; also called Pex5p(C) D624W

[2] = molecular target: T4, human Pex5p(C), cargo-binding domain of Pex5p (residues 315-639), wild-type (human, UniProt P50542 315-639, biotin (EZ-Link Sulfo-NHS-Biotinylation Kit, between 1 and 2 moles of biotin per mole) in the Octet RED96 assay only); experiment: as above; details: both partners purified
T4 construct: The His6-GST fusion is cleavable with TEV protease; also called Pex5p(C) WT; HsPex5p(C)

[3] = molecular target: T5, human Pex5p(C) (residues 315-639) R608W (human, UniProt P50542 315-639, R608W, biotin (EZ-Link Sulfo-NHS-Biotinylation Kit, between 1 and 2 moles of biotin per mole) in the Octet RED96 assay only); experiment: as above; details: both partners purified
T5 construct: Made by QuikChange on the His6-GST Pex5p(C) plasmid; also called Pex5p(C) R608W

[4] = molecular target: T3, human Pex5p(C) (residues 315-639) D624W; experiment: BLI; Octet RED96; biotinylated Pex5p(C) immobilised on streptavidin sensors at 20 μg/mL; PBS, 1000 rpm; association 1800 s, dissociation 1800 s; local fits, 1:1 model; details: both partners purified
[5] = molecular target: T4, human Pex5p(C), cargo-binding domain of …; experiment: as above; details: both partners purified
[6] = molecular target: T6, human Pex5p(C) (residues 315-639) S600W, infantile Refsum disease mutant (human, UniProt P50542 315-639, S600W, biotin (EZ-Link Sulfo-NHS-Biotinylation Kit, between 1 and 2 moles of biotin per mole)); experiment: as above; details: both partners purified
T6 construct: also called Pex5p(C)S600W

[7] = molecular target: T5, human Pex5p(C) (residues 315-639) R608W; experiment: as above; details: both partners purified
[8] = molecular target: T1, Gal4DB-preSCP2 (1-143), two-hybrid …; experiment: two-hybrid; GAL4 based, S. cerevisiae PCY2; Gal4AD-Pex5p(C) with Gal4DB-SCP2 variants; β-galactosidase activity (A420 per mg protein per min), mean of three measurements; details: partners not purified
[9] = molecular target: T2, Gal4DB-mSCP2 (21-143), two-hybrid fusion; experiment: as above; details: partners not purified

Binder	Kd [1] [nM]	dH [1] [kcal/mol]	stoichiometry N [1]	Kd [2] [nM]	dH [2] [kcal/mol]	stoichiometry N [2]	Kd [3] [nM]	dH [3] [kcal/mol]	stoichiometry N [3]	koff [4] [s⁻¹]	kon [4] [M⁻¹ s⁻¹]	koff [5] [s⁻¹]	kon [5] [M⁻¹ s⁻¹]	koff [6] [s⁻¹]	kon [6] [M⁻¹ s⁻¹]	koff [7] [s⁻¹]	kon [7] [M⁻¹ s⁻¹]	fold reduction of the two-hybrid interaction against wild-type Pex5p(C) [8] [fold]	fold reduction of the two-hybrid interaction against wild-type Pex5p(C) [9] [fold]
PGNAKL (C-terminal six residues of sterol carrier protein 2, human; numbers count on: preSCP2 of 143 residues; Free C-terminal carboxylate (PGNAKL-CO2-) as printed in the background; also called PGNAKL-CO2-; source: synthetic peptide (Sigma-Aldrich, > 95% purity)) [PTS1 hexapeptide PGNAKL derived from the C-terminus of SCP2]	763	-13.1	0.49 ± 0.01	547 ± 6	-10.2	0.94 ± 0.02	635 ± 25	-12.3	0.81 ± 0.01	–	–	–	–	–	–	–	–	–	–
Gal4AD-Pex5p(C) (residues 315-639) R608W, two-hybrid fusion (domain or fragment, also called Pex5p(C) R608W; source: yeast two-hybrid fusion (S. cerevisiae PCY2)) not shown	–	–	–	–	–	–	–	–	–	–	–	–	–	–	–	–	–	3	3

Results, then the binder that gave them:

Kd [1] [nM]	dH [1] [kcal/mol]	stoichiometry N [1]	Kd [2] [nM]	dH [2] [kcal/mol]	stoichiometry N [2]	Kd [3] [nM]	dH [3] [kcal/mol]	stoichiometry N [3]	koff [4] [s⁻¹]	kon [4] [M⁻¹ s⁻¹]	koff [5] [s⁻¹]	kon [5] [M⁻¹ s⁻¹]	koff [6] [s⁻¹]	kon [6] [M⁻¹ s⁻¹]	koff [7] [s⁻¹]	kon [7] [M⁻¹ s⁻¹]	fold reduction of the two-hybrid interaction against wild-type Pex5p(C) [8] [fold]	fold reduction of the two-hybrid interaction against wild-type Pex5p(C) [9] [fold]	Binder
45 ± 8	-13.3	0.41 ± 0.08	95 ± 21	-10.4	0.93 ± 0.03	179 ± 19	-17.1	0.61 ± 0.06	0.00015	11000	5.5e-05	23000	6e-05	6500	7.3e-05	7200	–	–	mature sterol carrier protein 2, mSCP2 (21-143) (natural protein, human, UniProt P22307-2 21-143, looked up, numbers count on: preSCP2 of 143 residues; The His6-GST fusion is cleavable with TEV protease) SSASDGFKANLVFKEIEKKLEEEGEQFVKKIGGIFAFKVKDGPGGKEATWVVDVKNGKGSVLPNSDKKADCTITMADSDFLALMTGKMNPQSAFFQGKLKITGNMGLAMKLQNLQLQPGNAKL
–	–	–	–	–	–	–	–	–	8.6e-05	13000	7.9e-05	35000	5.1e-05	7300	5e-05	9000	–	–	sterol carrier protein 2 with presequence, preSCP2 (1-143) (natural protein, human, UniProt P22307-2 1-143, looked up, numbers count on: preSCP2 of 143 residues; The His6-GST fusion is cleavable with TEV protease; also called full-length SCP2) MGFPEAASSFRTHQIEAVPTSSASDGFKANLVFKEIEKKLEEEGEQFVKKIGGIFAFKVKDGPGGKEATWVVDVKNGKGSVLPNSDKKADCTITMADSDFLALMTGKMNPQSAFFQGKLKITGNMGLAMKLQNLQLQPGNAKL
